We go through one molecule from PMC3961393, “Progranulin-Derived Atsttrin Directly Binds to TNFRSF25 (DR3) and Inhibits TNF-Like Ligand 1A (TL1A) Activity” (PLoS ONE, 2014).

For assay [1], the target named is T1, Recombinant protein hTL1A (human, UniProt O95150 72-251).
T1 construct: human TL1A, recombinant; also called TNF-Like Ligand 1A; source: bought: R&D system (Cat# 1319-TL-010)
T1 sequence (looked up): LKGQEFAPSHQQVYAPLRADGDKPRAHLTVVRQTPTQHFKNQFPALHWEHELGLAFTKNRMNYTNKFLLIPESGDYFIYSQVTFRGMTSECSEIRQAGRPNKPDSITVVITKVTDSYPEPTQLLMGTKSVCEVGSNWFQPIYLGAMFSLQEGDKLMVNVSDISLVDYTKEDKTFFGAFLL
Briefly: ELISA; solid phase inhibition assay: 100 ng of TNFa or TL1A coated overnight, 100 ng of TNFR2 or DR3 added together with various dose of Atsttrin, bound receptor detected by anti-TNFR2 or anti-DR3 antibody and HRP secondary antibody. To be noted: both partners purified. (ELISA stands for enzyme-linked immunosorbent assay.)

In assay [2] the target is T2, Recombinant hPGRN (human, UniProt P28799 18-593).
T2 construct: human progranulin, recombinant; also called Progranulin; source: bought: Adipogen (Cat. No. AG-40A-0188)
T2 sequence (looked up): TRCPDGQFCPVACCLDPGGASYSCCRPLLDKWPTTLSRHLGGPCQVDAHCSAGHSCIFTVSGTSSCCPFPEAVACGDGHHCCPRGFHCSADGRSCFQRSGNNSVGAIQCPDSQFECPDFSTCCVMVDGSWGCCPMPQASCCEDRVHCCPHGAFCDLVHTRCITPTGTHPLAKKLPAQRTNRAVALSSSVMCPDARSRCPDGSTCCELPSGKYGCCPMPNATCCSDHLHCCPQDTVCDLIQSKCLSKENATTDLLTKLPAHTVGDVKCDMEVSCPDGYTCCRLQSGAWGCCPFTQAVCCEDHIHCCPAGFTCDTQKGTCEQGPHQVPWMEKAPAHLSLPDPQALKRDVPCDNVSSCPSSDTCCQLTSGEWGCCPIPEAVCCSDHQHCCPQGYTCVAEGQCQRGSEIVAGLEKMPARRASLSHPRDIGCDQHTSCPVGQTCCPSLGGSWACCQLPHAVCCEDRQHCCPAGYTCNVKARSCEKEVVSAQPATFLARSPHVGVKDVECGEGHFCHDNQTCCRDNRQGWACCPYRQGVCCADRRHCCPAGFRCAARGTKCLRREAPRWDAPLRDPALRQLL
Description: ELISA; solid phase binding assay: various dose of Atsttrin or progranulin coated on the plate overnight, biotinylated TNFR2, DR3 or BSA added, detected with avidin-HRP, OD 450 nm. To be noted: both partners purified.

B1: recombinant extracellular portion of hDR3 (domain or fragment, human, UniProt Q93038 25-199, looked up)
chain: QGGTRSPRCDCAGDFHKKIGLFCCRGCPAGHYLKAPCTEPCGNSTCLVCPQDTFLAWENHHNSECARCQACDEQASQVALENCSAVADTRCGCKPGWFVECQVSQCVSSSPFYCQPCLDCGALHRHTRLLCSRRDTDCGTCLPGFYEHGDGCVSCPTSTLGSCPERCAAVCGWRQ
modifications: biotinylated (site not stated) in the direct solid phase binding assay; biotin is not mentioned for the inhibition assay
notes: human DR3 (TNFRSF25), recombinant extracellular portion; As I recall, this catalogue item is an Fc chimera; also called DR3 extracellular portion; TNFRSF25; source: bought: R&D system (Cat# 943-D3-050)
As to B1, the binding result in assay [1] and in assay [2] was “binds” in each case.
